# Assay results: the DeepSol protein solubility set
# Test: soluble on expression in E. coli; label from the status in PepcDB or PDB records
row,Sequence,soluble on expression in E. coli
1,MGSDKIHHHHHHMKIKVKLPDGKEKEYDRGITPAEIAKELGIKKAIGAVVNGELWDLKRPIENDCELRLVTLEDPEAPEFYRHTMAHILAQAVMRLYGKENVKLGIGPTIENGFYYDFDIKNGRLTEEDLPKIEQEMKKIIKENLPIERKEISKEEARELFRDQPYKLELIEEIEGNRVTIYRQGEFVDLCRGPHLPSTGIVKHFKLLSVSGAYWRGSEKNPMLTRVYGTAFAKKEDLDNYLKFLEEAQRRDHRKLGPQLELFMLNTEYAPGMPFFLPKGVVVLNELMKFSRELHRERGYQEIFTPLIMNEQLWKISGHWDHYAENMYFIEKDEERYAVKPMNCPGHILVYKSRTVSYRDLPLRFFEFGRVHRYERSGVLHGLMRVRSFTQDDAHIFCTPDQIEEEILGVLDLINTIYSQFGFTYRVELSTMPEDHMGDEAIWEKATTALKNALERAGLSYKVNEGEGAFYGPKIDFHIRDSIGREWQCATIQLDFMMPEKFNVTYIGPDNKEHRAVMIHRAIYGSLERFFGILIEHFAGAFPTWLAPIQVAVIPISEKHNDGAEKVARRISQEGFRVFFDNRRETLGYRIRQAQTQKIPYMIIIGDKELESGKISVRTRTGKEIKDVDPEHFVETLRNEVLSRKLELSMEG,not soluble
2,MELVVKSVAAASVKTATLVIPVGENRKLGAVAKAVDLASEGAISAVLKRGDLAGKPGQTLLLQNLQGLKAERVLLVGSGKDEALGDRTWRKLVASVAGVLKGLNGADAVLALDDVAVNNRDAHYGKYRLLAETLLDGEYVFDRFKSQKVEPRALKKVTLLADKAGQAEVERAVKHASAIATGMAFTRDLGNLPPNLCHPSFLAEQAKELGKAHKALKVEVLDEKKIKDLGMGAFYAVGQGSDQPPRLIVLNYQGGKKADKPFVLVGKGITFDTGGISLKPGAGMDEMKYDMCGAASVFGTLRAVLELQLPVNLVCLLACAENMPSGGATRPGDIVTTMSGQTVEILNTDAEGRLVLCDTLTYAERFKPQAVIDIATLTGACIVALGSHTTGLMGNNDDLVGQLLDAGKRADDRAWQLPLFDEYQEQLDSPFADMGNIGGPKAGTITAGCFLSRFAKAYNWAHMDIAGTAWISGGKDKGATGRPVPLLTQYLLDRAGA,soluble
3,MKLSKRQEQIIAVVKEHQPVSGERISDILAVSRATLRSDLSFLTLSGILKASPKVGYTYESDNMEAFFFFDVFQTKVQEIMSPPLMVAQDTSIRDAITNLFMYDVGSLYVMDEAKELLGVLSRKDLLRASLNTNIDGTPVAVCMTRVPHVKTCTPEFTILEAADTLQKYEVDSLPVVEKENPKKVIGKITKTKILTYITQQAKEAAQNR,not soluble
4,MSNTIRLSGIAYESLVNGPGIRRVFFSQGCKHNCIGCFNPDTHDFNGGEERDIEELIKDLADNPFIDGVTFSGGDPLEQANKFIYIAKAARELGLNIWSYTGYKFEYLLEHANEFNKWKEYLENIDVLVDGKFDINKKEDGLKFRGSSNQRIINVKESLKEGKVIELEFLEHHHHHH,not soluble
5,MKNKAFGQIMDDAENPGFFKILRSADLSSEIMRGIPLNFIKSISEEELSAKMLLKVSWGSSWPIKICRNPSFYFMEKKGWDQFLSDNGLGNDEFLTFTHQGNMCFTVDIYQIDGKELLTPRRSATIASSSGRNKREQRNNIYKDVKEEEDIESWSESSYPGHKTAESTGRRQRLSLSNKKAKETEKSKKKKMKVESISYDSQDDSLSLVPEFTLTIKKSYLIFLGIPKMFEELHMPTEATMFKIHDPEGKRSWDVMYKFSNNQTRFCAGWIRLAKELGLEIGDVCTFTLIKPTEMLVRVSK,soluble
6,MLNQELELSLNMAFARAREHRHEFMTVEHLLLALLSNPSAREALEACSVDLVALRQELEAFIEQTTPVLPASEEERDTQPTLSFQRVLQRAVFHVQSSGRNEVTGANVLVAIFSEQESQAAYLLRKHEVSRLDVVNFISHGTRKDEPTQSSDPGSQPNSEEQAGGEERLENFTTNLNQLARVGGIDPLIGREKELERAIQVLCRRRKNNPLLVGESGVGKTAIAEGLAWRIVQGDVPEVMADCTIYSLDIGSLLAGTKYRGDFEKRFKALLKQLEQDTNSILFIDEIHTIIGAGAASGGQVDAANLIKPLLSSGKIRVIGSTTYQEFSNIFEKDRALARRFQKIDITEPSIEETVQIINGLKPKYEAHHDVRYTAKAVRAAVELAVKYINDRHLPDKAIDVIDEAGARARLMPVSKRKKTVNVADIESVVARIARIPEKSVSQSDRDTLKNLGDRLKMLVFGQDKAIEALTEAIKMARAGLGHEHKPVGSFLFAGPTGVGKTEVTVQLSKALGIELLRFDMSEYMERHTVSRLIGAPPGYVGFDQGGLLTDAVIKHPHAVLLLDEIEKAHPDVFNILLQVMDNGTLTDNNGRKADFRNVVLVMTTNAGVRETERKSIGLIHQDNSTDAMEEIKKIFTPEFRNRLDNIIWFDHLSTDVIHQVVDKFIVELQVQLDQKGVSLEVSQEARNWLAEKGYDRAMGARPMARVIQDNLKKPLANELLFGSLVDGGQVTVALDKEKNELTYGFQSAQKHKAEAAH,soluble
7,MRQHKTKYLHQYELQALLNELNLNNEVNWDYFILLIAKTGIRFAEALGVTPDDFDFAHQTLSISKTWDYKSNKSDFAPTKNNSSVRKVPLDWQTVIQFSQLTKKLPEDQPIFVQAKVYNDTVNHYLERLCKHASIPVISVHGLRHTHASLLLYAGVSIASVARRLGHSNMTTTQQTYLHIIQELENQDNDKVMKHLASLILEHHHHHH,soluble
8,MGSDKIHHHHHHADIETCTVPGDVLNRDPIIGNDQITLPLKKGTNISKLAPEFTLTPGATINPESGVVRDFSTPQKYVVTSEDGKWKKEYEVTALFSGIPTSYHFENALPVKDKKGNILYYNFQESDAIGNILNWANANEGFNYTGVQAKPEEYPTSPAPDGVQGNCVKLTTKDTGSLGALLKMYIAAGNLFMGSFTLDIGNVLRATKFGVPFTHIPTSFKGYYKYKAGEVFTVKGEPVSGRKDICDIYAVFYETDDKVKSLDGTNVFTSPNLISIARISNAKETEQWTEFNLPFITLPGKTVDSQKLEDGKYNVAIVFSSSIKGDLFEGAAGSTLYIDEVELSYRDIK,not soluble
9,VSKRAAPFLYMITQRIEERGLPMELALLPVVESSFDAFAYSHGSAAGLWQFVPGTGKMMGLEQNYWYDGRRDVAASTDAALDYLVQLNERFDGNWEHAIAAYNSGGGRVSSAIRKNKKLGKPVDFFSLDLPKETSSYVPKLLALADVVANQEKYGIDIPSIPNKPVLT,not soluble
10,MGSDKIHHHHHHMAKIAYILLCHKDPDAIIMQAERLTAAGDYMSIHFDARARKADFARIRKALADNPNVTFARRRIKCGWGEWSLVQATLNAIEAAVDEFPRATHFYMLSGDCMAIKTAEYAHSFLDAQDKDYIESFDYFESDWIKTGWKEERLIYRHWFNERTQKRRFYAMFQAQKRLGLTREIPSDIQVMIGSQWWCLRRRTIEWILDFTRKRRDVMQFFATTWIPDETFFQTLVRHLIPEDEIDPRTLTFLMFSDYGMPVSFYNDHYDLLLSQDFLFARKISPEAKELKARLGRLYAAHGVQFQISNEGRNLYKFLTGRGRIGRRFSMRFWETESTLGRERELMILVCKKWHVAKRLLDQIRQVTNVPSIEYLFNEEGTPLPDLGGIQATLEKRTRHRRALMRMLFEYFDTDRLVICLDPTNLELMHDFFSDRSVTRMLEIECQFTDEYLIGHSYRVGLAGERTPKATLERLLPTIRNEMTYEADRIRDAGFARYGRIHQTSTPEENADKVAEFLSIPWDQALRITQTDHLFAD,not soluble
11,MAEGVNEPCFPGDCGIFVTKVDKGSIADGRLRVNDWLLRINDVDLINKDKKQAIKALLNGEGAINMVVRRRKSLGGKVVTPLHINLSGQKDSGISLENGVYAAAVLPGSPAAKEGSLAVGDRIVAINGIALDNKSLNECESLLRSCQDSLTLSLLKVFPQSSSWSGQNIFENIKDSDKMLSFRAHGPEVQAHNKRNLIQHNNSTQTDIFYTDRLEDRKEPGPPGGSSSFLHKPFPGGPLQVCPQACPSASERSLSSFRSDASGDRGFGLVDVRGRRPLLPFETEVGPCGVGEASLDKADSEGSNSGGTWPKAMLSSTAVPEKLSVYKKPKQRKSIFDPNTFKRPQTPPKIDYLLPGPGPAHSPQPSKRAGPLTPPKPPRRSDSIKFQHRLETSSESEATLVGSSPSTSPPSALPPDVDPGEPMHASPPRKARVRIASSYYPEGDGDSSHLPAKKSCDEDLTSQKVDELGQKRRRPKSAPSFRPKLAPVVIPAQFLEEQKCVPASGELSPELQEWAPYSPGHSSRHSNPPLYPSRPSVGTVPRSLTPSTTVSSILRNPIYTVRSHRVGPCSSPPAARDAGPQGLHPSVQHQGRLSLDLSHRTCSDYSEMRATHGSNSLPSSARLGSSSNLQFKAERIKIPSTPRYPRSVVGSERGSVSHSECSTPPQSPLNIDTLSSCSQSQTSASTLPRIAVNPASLGERRKDRPYVEEPRHVKVQKGSEPLGISIVSGEKGGIYVSKVTVGSIAHQAGLEYGDQLLEFNGINLRSATEQQARLIIGQQCDTITILAQYNPHVHQLSSHSRSSSHLDPAGTHSTLQGSGTTTPEHPSVIDPLMEQDEGPSTPPAKQSSSRIAGDANKKTLEPRVVFIKKSQLELGVHLCGGNLHGVFVAEVEDDSPAKGPDGLVPGDLILEYGSLDVRNKTVEEVYVEMLKPRDGVRLKVQYRPEEFTKAKGLPGDSFYIRALYDRLADVEQELSFKKDDILYVDDTLPQGTFGSWMAWQLDENAQKIQRGQIPSKYVMDQEFSRRLSMSEVKDDNSATKTLSAAARRSFFRRKHKHKRSGSKDGKDLLALDAFSSDSIPLFEDSVSLAYQRVQKVDCTALRPVLILGPLLDVVKEMLVNEAPGKFCRCPLEVMKASQQAIERGVKDCLFVDYKRRSGHFDVTTVASIKEITEKNRHCLLDIAPHAIERLHHMHIYPIVIFIHYKSAKHIKEQRDPIYLRDKVTQRHSKEQFEAAQKLEQEYSRYFTGVIQGGALSSICTQILAMVNQEQNKVLWIPACPL,soluble
12,GMNNIQAIRKKVETQIDDLQNKTDEIAEFNQAKVLDAFQENKVSDFHFHPSTGYGYDDEGRDTLERVYATVFKTEAALVRPQIISGTHAISTVLFGILRPDDELLYITGQPYDTLEEIVGIRKQGQGSLKDFHIGYSSVPLLENGDVDFPRIAKKMTPKTKMIGIQRSRGYADRPSFTIEKIKEMIVFVKNINPEVIVFVDNCYGEFVEYQEPPEVGADIIAGSLIKNPGGGLAKTGGYIAGKEALVDLCGYRLTTPGIGREAGASLYSLLEMYQGFFLAPHVTAQAIKGARFTAAMLAEFGVEADPVWDAPRTDLIQSVSFHNKEKMVAFAQAIQAASPVNAHVLPIGAYMPGYEDDVIMAAGTFIQGASLELTADGPIREPYQLYVQGGLTYEHIKIAVTRAIQKIV,soluble
13,MGAIKVEIKSGALLISPSEFKERYLPTLQDMPVLAFVRNIEAPKSWYSYLISNIEDQKSSIFPTNLPRILEISRRYFSSVKNGIVVIDALEYLTIYNGFEAIAKFLATLRDFAILDNGTVIIITEKKAWKDREWALLTSLLGKLEHHHHHH,not soluble
14,MGHHHHHHSHMKDSEKHIEVEVRKFLALKQTPDFHTVIGDTVTGLLERCKAEPSFYPRNCLMQLIQTHVLSYSLCPDLMEIALKKKDVQLLQLCLQQFPDIPESVTCACLKIFLSIGDDSLQETDVNMESVFDYSINSVHDEKMEEQTEILQNGFNPEEDKCNNCDQELNKKPQDETKESTSCPVVQKRAALLNAILHSAYSETFLLPHLKDIPAQHITLFLKYLYFLYLKCSENATMTLPGIHPPTLNQIMDWICLLLDANFTVVVMMPEAKRLLINLYKLVKSQISVYSELNKIEVSFRELQKLNQEKNNRGLYSIEVLELF,not soluble
15,MSLIVKFCGFKTESDIKKIKKLEVDAVGFIHYPDSKRHVSLKQLKYLAKIVPDHIEKVVVVVNPQMSTIKRIINQTDINTIQLHGNESIQLIRNIKKLNSKIRIIKAIPATRNLNNNIQKYKDEIDMFIIDTPSITYGGTGQSFDWKLLKKIKGVDFLIAGGLDFEKIKRLEIYSFGQCGYDISTGIESHNEKDFNKMTRILKFLKGDEGHHHHHH,not soluble
